# Results from patent US20250361268A1, “NOVEL ANTI-INFLAMMATORY PEPTIDE AND USE THEREOF” (NOVACELL TECHNOLOGY INC., priority 2022, published 2025).
# T1: formyl peptide receptor 2 (FPR2) (UniProt P25090 1-351, limits assumed)
# T1 sequence (looked up): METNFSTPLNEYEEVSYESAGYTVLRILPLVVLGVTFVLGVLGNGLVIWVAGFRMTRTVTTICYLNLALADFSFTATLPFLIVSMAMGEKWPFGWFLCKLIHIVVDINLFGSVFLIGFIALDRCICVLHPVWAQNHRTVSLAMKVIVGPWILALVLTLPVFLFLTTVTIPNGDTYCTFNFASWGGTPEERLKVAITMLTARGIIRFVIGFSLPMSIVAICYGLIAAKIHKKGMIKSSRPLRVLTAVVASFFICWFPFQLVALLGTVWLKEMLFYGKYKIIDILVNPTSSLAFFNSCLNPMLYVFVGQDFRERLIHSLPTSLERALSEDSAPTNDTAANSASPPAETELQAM
# T2: FPR1 (UniProt P21462 1-350, limits assumed)
# T2 sequence (looked up): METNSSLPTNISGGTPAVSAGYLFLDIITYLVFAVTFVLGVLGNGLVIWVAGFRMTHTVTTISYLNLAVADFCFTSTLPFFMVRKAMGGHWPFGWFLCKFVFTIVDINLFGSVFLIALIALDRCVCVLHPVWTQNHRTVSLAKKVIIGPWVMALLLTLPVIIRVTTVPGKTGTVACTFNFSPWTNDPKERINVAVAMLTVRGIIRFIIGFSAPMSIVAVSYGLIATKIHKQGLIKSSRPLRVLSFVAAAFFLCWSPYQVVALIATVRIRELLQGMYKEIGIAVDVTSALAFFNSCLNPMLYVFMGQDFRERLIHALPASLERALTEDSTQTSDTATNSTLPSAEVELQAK
# B1: peptide of SEQ ID NO 53 (peptide)
# peptide: RMRYKPM
# HELM: PEPTIDE1{[CCCCCCCC(=O)[*:2]].R.M.R.Y.K.P.[dM].[am]}$$$$V2.0
# SMILES: CCCCCCCC(=O)N[C@@H](CCCNC(=N)N)C(=O)N[C@@H](CCSC)C(=O)N[C@@H](CCCNC(=N)N)C(=O)N[C@@H](Cc1ccc(O)cc1)C(=O)N[C@@H](CCCCN)C(=O)N1CCC[C@H]1C(=O)N[C@H](CCSC)C(N)=O
# B2: peptide of SEQ ID NO 50 (peptide)
# peptide: RMRYKPM
# HELM: PEPTIDE1{R.M.R.Y.K.P.[dM].[am]}$$$$V2.0; N-terminus assumed
# SMILES: CSCC[C@H](NC(=O)[C@@H](N)CCCNC(=N)N)C(=O)N[C@@H](CCCNC(=N)N)C(=O)N[C@@H](Cc1ccc(O)cc1)C(=O)N[C@@H](CCCCN)C(=O)N1CCC[C@H]1C(=O)N[C@H](CCSC)C(N)=O
# B3: peptide of SEQ ID NO 4 (peptide)
# peptide: KWKYKVM
# HELM: PEPTIDE1{[ac].K.W.K.Y.K.V.[dM].[am]}$$$$V2.0
# SMILES: CSCC[C@@H](NC(=O)[C@@H](NC(=O)[C@H](CCCCN)NC(=O)[C@H](Cc1ccc(O)cc1)NC(=O)[C@H](CCCCN)NC(=O)[C@H](Cc1c[nH]c2ccccc12)NC(=O)[C@H](CCCCN)NC(C)=O)C(C)C)C(N)=O
# B4: peptide of SEQ ID NO 5 (peptide)
# peptide: RMRYKVM
# HELM: PEPTIDE1{R.M.R.Y.K.V.[dM].[am]}$$$$V2.0; N-terminus assumed
# SMILES: CSCC[C@H](NC(=O)[C@@H](N)CCCNC(=N)N)C(=O)N[C@@H](CCCNC(=N)N)C(=O)N[C@@H](Cc1ccc(O)cc1)C(=O)N[C@@H](CCCCN)C(=O)N[C@H](C(=O)N[C@H](CCSC)C(N)=O)C(C)C
# B5: peptide of SEQ ID NO 46 (peptide)
# peptide: PMRYKYM
# HELM: PEPTIDE1{P.M.R.Y.K.Y.[dM].[am]}$$$$V2.0; N-terminus assumed
# SMILES: CSCC[C@H](NC(=O)[C@@H]1CCCN1)C(=O)N[C@@H](CCCNC(=N)N)C(=O)N[C@@H](Cc1ccc(O)cc1)C(=O)N[C@@H](CCCCN)C(=O)N[C@@H](Cc1ccc(O)cc1)C(=O)N[C@H](CCSC)C(N)=O
# B6: peptide of SEQ ID NO 52 (peptide)
# peptide: RMRYKPM
# HELM: PEPTIDE1{[CCCC(=O)[*:2]].R.M.R.Y.K.P.[dM].[am]}$$$$V2.0
# SMILES: CCCC(=O)N[C@@H](CCCNC(=N)N)C(=O)N[C@@H](CCSC)C(=O)N[C@@H](CCCNC(=N)N)C(=O)N[C@@H](Cc1ccc(O)cc1)C(=O)N[C@@H](CCCCN)C(=O)N1CCC[C@H]1C(=O)N[C@H](CCSC)C(N)=O
# B7: peptide of SEQ ID NO 122 (peptide)
# peptide: WRYYPM
# HELM: PEPTIDE1{[ac].W.R.Y.Y.P.[dM].[am]}$$$$V2.0
# SMILES: CSCC[C@@H](NC(=O)[C@@H]1CCCN1C(=O)[C@H](Cc1ccc(O)cc1)NC(=O)[C@H](Cc1ccc(O)cc1)NC(=O)[C@H](CCCNC(=N)N)NC(=O)[C@H](Cc1c[nH]c2ccccc12)NC(C)=O)C(N)=O
# B8: peptide of SEQ ID NO 1 (peptide)
# peptide: RWRYKVM
# HELM: PEPTIDE1{R.W.R.Y.K.V.[dM].[am]}$$$$V2.0; N-terminus assumed
# SMILES: CSCC[C@@H](NC(=O)[C@@H](NC(=O)[C@H](CCCCN)NC(=O)[C@H](Cc1ccc(O)cc1)NC(=O)[C@H](CCCNC(=N)N)NC(=O)[C@H](Cc1c[nH]c2ccccc12)NC(=O)[C@@H](N)CCCNC(=N)N)C(C)C)C(N)=O
# B9: peptide of SEQ ID NO 55 (peptide)
# peptide: MRYKPM
# HELM: PEPTIDE1{[ac].M.R.Y.K.P.[dM].[am]}$$$$V2.0
# SMILES: CSCC[C@H](NC(C)=O)C(=O)N[C@@H](CCCNC(=N)N)C(=O)N[C@@H](Cc1ccc(O)cc1)C(=O)N[C@@H](CCCCN)C(=O)N1CCC[C@H]1C(=O)N[C@H](CCSC)C(N)=O
# B10: peptide of SEQ ID NO 51 (peptide)
# peptide: RMRYKPM
# HELM: PEPTIDE1{[ac].R.M.R.Y.K.P.[dM].[am]}$$$$V2.0
# SMILES: CSCC[C@H](NC(=O)[C@H](CCCNC(=N)N)NC(C)=O)C(=O)N[C@@H](CCCNC(=N)N)C(=O)N[C@@H](Cc1ccc(O)cc1)C(=O)N[C@@H](CCCCN)C(=O)N1CCC[C@H]1C(=O)N[C@H](CCSC)C(N)=O
# B11: peptide of SEQ ID NO 121 (peptide)
# peptide: RWRYYPM
# HELM: PEPTIDE1{[ac].R.W.R.Y.Y.P.[dM].[am]}$$$$V2.0
# SMILES: CSCC[C@@H](NC(=O)[C@@H]1CCCN1C(=O)[C@H](Cc1ccc(O)cc1)NC(=O)[C@H](Cc1ccc(O)cc1)NC(=O)[C@H](CCCNC(=N)N)NC(=O)[C@H](Cc1c[nH]c2ccccc12)NC(=O)[C@H](CCCNC(=N)N)NC(C)=O)C(N)=O
# B12: peptide of SEQ ID NO 45 (peptide)
# peptide: HMRYKYM
# HELM: PEPTIDE1{[CCCC(=O)[*:2]].H.M.R.Y.K.Y.[dM].[am]}$$$$V2.0
# SMILES: CCCC(=O)N[C@@H](Cc1c[nH]cn1)C(=O)N[C@@H](CCSC)C(=O)N[C@@H](CCCNC(=N)N)C(=O)N[C@@H](Cc1ccc(O)cc1)C(=O)N[C@@H](CCCCN)C(=O)N[C@@H](Cc1ccc(O)cc1)C(=O)N[C@H](CCSC)C(N)=O
# B13: peptide of SEQ ID NO 151 (peptide)
# peptide: HKYWPM
# HELM: PEPTIDE1{[CCCC(=O)[*:2]].H.K.Y.W.P.[dM].[am]}$$$$V2.0
# SMILES: CCCC(=O)N[C@@H](Cc1c[nH]cn1)C(=O)N[C@@H](CCCCN)C(=O)N[C@@H](Cc1ccc(O)cc1)C(=O)N[C@@H](Cc1c[nH]c2ccccc12)C(=O)N1CCC[C@H]1C(=O)N[C@H](CCSC)C(N)=O
# B14: peptide of SEQ ID NO 54 (peptide)
# peptide: MRYKPM
# HELM: PEPTIDE1{M.R.Y.K.P.[dM].[am]}$$$$V2.0; N-terminus assumed
# SMILES: CSCC[C@H](N)C(=O)N[C@@H](CCCNC(=N)N)C(=O)N[C@@H](Cc1ccc(O)cc1)C(=O)N[C@@H](CCCCN)C(=O)N1CCC[C@H]1C(=O)N[C@H](CCSC)C(N)=O
# B15: peptide of SEQ ID NO 47 (peptide)
# peptide: PMRYKYM
# HELM: PEPTIDE1{[CCCC(=O)[*:2]].P.M.R.Y.K.Y.[dM].[am]}$$$$V2.0
# SMILES: CCCC(=O)N1CCC[C@H]1C(=O)N[C@@H](CCSC)C(=O)N[C@@H](CCCNC(=N)N)C(=O)N[C@@H](Cc1ccc(O)cc1)C(=O)N[C@@H](CCCCN)C(=O)N[C@@H](Cc1ccc(O)cc1)C(=O)N[C@H](CCSC)C(N)=O
# B16: peptide of SEQ ID NO 150 (peptide)
# peptide: HKYWPM
# HELM: PEPTIDE1{[ac].H.K.Y.W.P.[dM].[am]}$$$$V2.0
# SMILES: CSCC[C@@H](NC(=O)[C@@H]1CCCN1C(=O)[C@H](Cc1c[nH]c2ccccc12)NC(=O)[C@H](Cc1ccc(O)cc1)NC(=O)[C@H](CCCCN)NC(=O)[C@H](Cc1c[nH]cn1)NC(C)=O)C(N)=O
# B17: peptide of SEQ ID NO 137 (peptide)
# peptide: IKYKVM
# HELM: PEPTIDE1{[CCCCCCCC(=O)[*:2]].I.K.Y.K.V.[dM].[am]}$$$$V2.0
# SMILES: CCCCCCCC(=O)N[C@H](C(=O)N[C@@H](CCCCN)C(=O)N[C@@H](Cc1ccc(O)cc1)C(=O)N[C@@H](CCCCN)C(=O)N[C@H](C(=O)N[C@H](CCSC)C(N)=O)C(C)C)[C@@H](C)CC
# B18: peptide of SEQ ID NO 31 (peptide)
# peptide: HMRYRVM
# HELM: PEPTIDE1{H.M.R.Y.R.V.[dM].[am]}$$$$V2.0; N-terminus assumed
# SMILES: CSCC[C@H](NC(=O)[C@@H](N)Cc1c[nH]cn1)C(=O)N[C@@H](CCCNC(=N)N)C(=O)N[C@@H](Cc1ccc(O)cc1)C(=O)N[C@@H](CCCNC(=N)N)C(=O)N[C@H](C(=O)N[C@H](CCSC)C(N)=O)C(C)C
# B19: peptide of SEQ ID NO 14 (peptide)
# peptide: MRYKVM
# HELM: PEPTIDE1{[ac].M.R.Y.K.V.[dM].[am]}$$$$V2.0
# SMILES: CSCC[C@H](NC(C)=O)C(=O)N[C@@H](CCCNC(=N)N)C(=O)N[C@@H](Cc1ccc(O)cc1)C(=O)N[C@@H](CCCCN)C(=O)N[C@H](C(=O)N[C@H](CCSC)C(N)=O)C(C)C
# Target: T1, formyl peptide receptor 2 (FPR2)
# Experiment: cell-based or functional assay
row,EC50 for [Ca2+] [nM],Binder
1,< 10,B1
2,< 10,B2
3,< 10,B3
4,< 10,B4
5,< 10,B5
6,< 10,B6
7,< 10,B7
8,< 10,B8
9,< 10,B9
10,< 10,B10
11,< 10,B11
12,< 10,B12
13,< 10,B13
14,< 10,B14
15,< 10,B15
16,< 10,B16
17,< 10,B17
18,< 10,B18
19,< 10,B19

# Target: T2, FPR1
# Experiment: cell-based or functional assay
row,EC50 for [Ca2+] [µM],Binder
1,> 10,B1
2,> 10,B2
3,> 10,B3
4,> 10,B4
5,> 10,B5
6,> 10,B6
7,> 10,B8
8,> 10,B9
9,> 10,B10
10,> 10,B12
11,> 10,B14
12,> 10,B15
